Results on ten molecules are retold here after publication PMC10066265, “Inhibitor-3 inhibits Protein Phosphatase 1 via a metal binding dynamic protein–protein interaction” (Nature Communications, 2023).

Assay [1] deals with PP1α7-330 (UniProt P62136).
Assay [2] has as its target T1, His6-PP1α_(7-330) (UniProt P62136 7-330). Put plainly: cell-based or functional assay.
Assay [3] deals with T2, His6-PP1α_(7-330) C273S (UniProt P62136 7-330, C273S). Briefly: cell-based or functional assay.
Assay [4] deals with T1, His6-PP1α_(7-330). Put plainly: SPR; His6-PP1 captured on a Ni-NTA sensorchip, I3_(27-68) injected; pH = 7.0 (Table 1); two state fit. To be noted: both partners purified.
Assay [5] deals with T1, His6-PP1α_(7-330). Briefly: SPR; His6-PP1 captured on a Ni-NTA sensorchip, I3_(27-68) injected; pH = 6.5 (Table 1); two state fit; pH 6.5. The following applies: both partners purified.
Assay [6] addresses T1, His6-PP1α_(7-330). Put plainly: SPR; His6-PP1 captured on a Ni-NTA sensorchip, I3_(27-68) injected; pH = 7.5 (Table 1); two state fit; pH 7.5. To be noted: both partners purified.
The target in assay [7] is T1, His6-PP1α_(7-330). Briefly: SPR; His6-PP1 captured on a Ni-NTA sensorchip (NiHC200M), I3 variants injected; 25 °C; 20 mM Tris pH 8.0, 500 mM NaCl, 1 mM MnCl2, 0.5 mM TCEP, 0.05% Tween-20; one-to-one one state or one-to-one two state model. The following applies: both partners purified. A general note: SPR reads the build-up and loss of mass on a sensor chip optically.

The target of assay [8] is T2, His6-PP1α_(7-330) C273S. The description is as above. The following applies: both partners purified.
Assay [9] has as its target T3, His6-PP1α_(7-330) H66K (UniProt P62136 7-330, H66K).
T3 construct: Protein Phosphatase 1 alpha (PP1α), residues 7-330, H66K; also called PP1 H66K; PP1_(7-330) H66K; source: bacterial expression (E. coli) as previously described, purified (Ni-NTA, SEC)
The description is as above. The following applies: both partners purified.

The target of assay [10] is T4, His6-PP1α_(7-330) H248N (UniProt P62136 7-330, H248N).
T4 construct: Protein Phosphatase 1 alpha (PP1α), residues 7-330, H248N; also called PP1_(7-330) H248N; source: bacterial expression (E. coli) as previously described, purified (Ni-NTA, SEC)
The description is as above. The following applies: both partners purified.

Assay [11] deals with T5, PP1α_(7-330) (UniProt P62136 7-330).
T5 construct: Protein Phosphatase 1 alpha (PP1α), residues 7-330; His6-PP1 was captured on the Ni-NTA sensor chip as the SPR ligand; Mn2+ in all buffers; also called Protein Phosphatase 1; His6-PP1; source: E. coli, purified (Ni-NTA, SEC)
Put plainly: SPR; His6-PP1 captured on Ni-NTA chip (NiHC200M), I3 variants injected; 25 °C; 20 mM Tris pH 8.0, 500 mM NaCl, 1 mM MnCl2, 0.5 mM TCEP, 0.05% Tween-20; one-to-one one state or one-to-one two state model (TraceDrawer). To be noted: both partners purified.

The target of assay [12] is T1, His6-PP1α_(7-330). Briefly: SPR; His6-PP1 captured on a Ni-NTA sensorchip (NiHC200M), I3 variants injected; 25 °C; 20 mM Tris pH 8.0, 500 mM NaCl, 1 mM MnCl2, 0.5 mM TCEP, 0.05% Tween-20; one-to-one one state or one-to-one two state model. The following applies: both partners purified. The source holds these as a separate data set.

Several values for one entry are separate records, joined by “and”; a condition that tells them apart may be missing. Identical values can stand only once.

T5 sequence (P62136 7-330): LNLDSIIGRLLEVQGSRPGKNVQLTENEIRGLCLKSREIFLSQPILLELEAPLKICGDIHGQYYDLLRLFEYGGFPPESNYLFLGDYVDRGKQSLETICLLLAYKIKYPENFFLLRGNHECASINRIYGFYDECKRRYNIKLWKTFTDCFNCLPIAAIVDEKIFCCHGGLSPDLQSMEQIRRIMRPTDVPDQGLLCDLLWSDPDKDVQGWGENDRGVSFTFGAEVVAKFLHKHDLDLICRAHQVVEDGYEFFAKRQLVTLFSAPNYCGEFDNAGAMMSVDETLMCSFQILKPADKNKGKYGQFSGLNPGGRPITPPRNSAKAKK
T1 sequence (P62136 7-330): as above
T2 sequence (P62136 7-330 C273S): as the sequence (P62136 7-330) above, with C267S counted along it
PP1α7-330, sequence (P62136 7-330): as the sequence (P62136 7-330) above
T3 sequence (P62136 7-330 H66K): as the sequence (P62136 7-330) above, with H60K counted along it
T4 sequence (P62136 7-330 H248N): as the sequence (P62136 7-330) above, with H242N counted along it

For the molecule SLTIKLRKRKPEKKVEWTSDTVDNEHMGRRSSKCCCIYEKPR (domain or fragment) [I327-68 (I3 PP1 interaction domain)], in [1], the Supplementary Figure 5A: IC50 of PP1 inhibition by I3 27-68 (dephosphorylation of the H3pT3 peptide) in the presence of 1.3 mM DTT; I3 exchanged into buffer without 0.5 mM TCEP was determined as 0.07 µM.

B1: I3_(27-68) (I3 PP1 interaction domain) (domain or fragment, human, UniProt O60927 27-68, looked up)
chain: SLTIKLRKRKPEKKVEWTSDTVDNEHMGRRSSKCCCIYEKPR
notes: PPP1R11), human, residues 27-68; also called WT I3_(27-68); source: E. coli BL21 (DE3), purified (Ni-NTA, TEV, heat 95 °C, SEC); not shown: His6, N-terminal, cleaved; MBP, N-terminal, cleaved
Take B1: in [2], the “IC50 of PP1 inhibition (dephosphorylation of the H3pT3 peptide, released Pi)” value worked out at 0.075 µM. The “IC50 of PP1 C273S inhibition (dephosphorylation of the H3pT3 peptide, released Pi; 1.33 mM DTT)” value in assay [3] turned out to be 0.085 µM. Besides, the dissociation constant Kd (usually a measure of binding affinity in units of concentration) in [4] was 0.0161 ± 0.0011 µM; in [5] it was 0.017 ± 0.0008 µM; in assay [6], 0.009 ± 0.0006 µM; in assay [7] it was 0.0093 ± 0.0011 µM; in assay [8], 0.0161 ± 0.0007 µM; in assay [9], 0.0059 ± 0.0006 µM. The molecule also returned a Kd in [10] of 0.0066 ± 0.0017 µM.

B2: SSS: I3_(27-68) C60S/C61S/C62S (domain or fragment, human, UniProt O60927 27-68, looked up)
chain: SLTIKLRKRKPEKKVEWTSDTVDNEHMGRRSSKSSSIYEKPR
notes: PPP1R11), human, residues 27-68, C60S/C61S/C62S; also called I3_27-68_60SSS62; I3_(27-68) SSS; source: E. coli BL21 (DE3), purified (Ni-NTA, TEV cleavage, heat, SEC); not shown: His6, N-terminal, cleaved; MBP, N-terminal, cleaved
As for B2, in assay [11], the dissociation constant (Kd) is 0.409 µM and 0.421 µM and 0.406 µM; the koff (usually the rate constant with which the complex falls apart) was 0.0719 s⁻¹ and 0.0774 s⁻¹ and 0.0728 s⁻¹ and 0.074 s⁻¹; the kon (in general, the second-order rate constant of association) was 176000 M⁻¹ s⁻¹ and 184000 M⁻¹ s⁻¹ and 179000 M⁻¹ s⁻¹ and 180000 M⁻¹ s⁻¹.

B3: CCS: I3_(27-68) C62S (domain or fragment, human, UniProt O60927 27-68, looked up)
chain: SLTIKLRKRKPEKKVEWTSDTVDNEHMGRRSSKCCSIYEKPR
notes: PPP1R11), human, residues 27-68; source: E. coli BL21 (DE3), purified (Ni-NTA, TEV, heat 95 °C, SEC); not shown: His6, N-terminal, cleaved; MBP, N-terminal, cleaved
On to B3, for which the “IC50 of PP1 inhibition (dephosphorylation of the H3pT3 peptide, released Pi)” value in [2] turned out to be 0.171 µM. Besides, the dissociation constant Kd in assay [7] is 0.0206 ± 0.0051 µM.

B4: SSC: I3_(27-68) C60S/C61S (domain or fragment, human, UniProt O60927 27-68, looked up)
chain: SLTIKLRKRKPEKKVEWTSDTVDNEHMGRRSSKSSCIYEKPR
notes: as for B3
As to B4, in [2], the “IC50 of PP1 inhibition (dephosphorylation of the H3pT3 peptide, released Pi)” value came to 0.349 µM. Also, the equilibrium dissociation constant (Kd) in assay [12] was determined as 0.0866 µM; in assay [7], 0.0868 ± 0.0038 µM.

B5: CSS: I3_(27-68) C61S/C62S (domain or fragment, human, UniProt O60927 27-68, looked up)
chain: SLTIKLRKRKPEKKVEWTSDTVDNEHMGRRSSKCSSIYEKPR
notes: as for B3
As for B5, the “IC50 of PP1 inhibition (dephosphorylation of the H3pT3 peptide, released Pi)” value in assay [2] was found to be 0.153 µM. The Kd in [7] was determined as 0.0212 ± 0.0006 µM.

B6: SCS: I3_(27-68) C60S/C62S (domain or fragment, human, UniProt O60927 27-68, looked up)
chain: SLTIKLRKRKPEKKVEWTSDTVDNEHMGRRSSKSCSIYEKPR
notes: as for B3
As for B6, the “IC50 of PP1 inhibition (dephosphorylation of the H3pT3 peptide, released Pi)” value in assay [2] was 0.179 µM. The equilibrium dissociation constant (Kd) in [7] was 0.054 ± 0.009 µM.

B7: CSC: I3_(27-68) C61S (domain or fragment, human, UniProt O60927 27-68, looked up)
chain: SLTIKLRKRKPEKKVEWTSDTVDNEHMGRRSSKCSCIYEKPR
notes: as for B3
In the case of B7, the “IC50 of PP1 inhibition (dephosphorylation of the H3pT3 peptide, released Pi)” value in [2] was 0.158 µM. The molecule further gave a dissociation constant Kd in [7] of 0.0188 ± 0.0009 µM.

B8: SCC: I3_(27-68) C60S (domain or fragment, human, UniProt O60927 27-68, looked up)
chain: SLTIKLRKRKPEKKVEWTSDTVDNEHMGRRSSKSCCIYEKPR
notes: as for B3
Consider B8, for which, in assay [2], the “IC50 of PP1 inhibition (dephosphorylation of the H3pT3 peptide, released Pi)” value was 0.243 µM. Binding in [7] was characterised by a dissociation constant (Kd) of 0.0217 ± 0.0031 µM.

B9: IY: I3_(27-68) I63A/Y64A (domain or fragment, human, UniProt O60927 27-68, looked up)
chain: SLTIKLRKRKPEKKVEWTSDTVDNEHMGRRSSKCCCAAEKPR
notes: PPP1R11), human, residues 27-68; also called I3_(27-68) IY; source: E. coli BL21 (DE3), purified (Ni-NTA, TEV, heat 95 °C, SEC); not shown: His6, N-terminal, cleaved; MBP, N-terminal, cleaved
B9: in assay [7], the Kd worked out at 0.0156 ± 0.0024 µM.
